Kd and koff data for seven molecules are collected here from publication PMC13486833 (2026).

The labels stand for the following.
B1: FR-HMGB1 1–214 (natural protein)
chain: MGKGDPKKPRGKMSSYAFFVQTCREEHKKKHPDASVNFSEFSKKCSERWKTMSAKEKGKFEDMAKADKARYEREMKTYIPPKGETKKKFKDPNAPKRPPSAFFLFCSEYRPKIKGEHPGLSIGDVAKKLGEMWNNTAADDKQPYEKKAAKLKEKYEKDIAAYRAKGKPDAAKKGVVKAEKSKKKKEEEEDEEDEEDEEEEEDEEDEDEEEDDDDE
B2: DS-HMGB1 1–214 (natural protein)
chain: B1 chain
modifications: disulfide bond between C22 and C44
B3: DS-HMGB1 1–184 (domain or fragment)
chain: GKGDPKKPRGKMSSYAFFVQTCREEHKKKHPDASVNFSEFSKKCSERWKTMSAKEKGKFEDMAKADKARYEREMKTYIPPKGETKKKFKDPNAPKRPPSAFFLFCSEYRPKIKGEHPGLSIGDVAKKLGEMWNNTAADDKQPYEKKAAKLKEKYEKDIAAYRAKGKPDAAKKGVVKAEKSKKKK
modifications: disulfide bond between C22 and C44
B4: 3S-HMGB1 1–214 (natural protein)
chain: GKGDPKKPRGKMSSYAFFVQTSREEHKKKHPDASVNFSEFSKKSSERWKTMSAKEKGKFEDMAKADKARYEREMKTYIPPKGETKKKFKDPNAPKRPPSAFFLFSSEYRPKIKGEHPGLSIGDVAKKLGEMWNNTAADDKQPYEKKAAKLKEKYEKDIAAYRAKGKPDAAKKGVVKAEKSKKKKEEEEDEEDEEDEEEEEDEEDEDEEEDDDDE
B5: DS Box A 1-88 (protein)
chain: GKGDPKKPRGKMSSYAFFVQTCREEHKKKHPDASVNFSEFSKKCSERWKTMSAKEKGKFEDMAKADKARYEREMKTYIPPKGETKKKF
modifications: intramolecular disulfide Cys22-Cys44 in paper numbering (UniProt Cys23-Cys45); paper numbering omits the initiator Met (offset +1: paper Pro8-Ile78 = UniProt 9-79); any initiator Met or tag remnant left out
B6: DS-HMGB1 1–164 (domain or fragment)
chain: GKGDPKKPRGKMSSYAFFVQTCREEHKKKHPDASVNFSEFSKKCSERWKTMSAKEKGKFEDMAKADKARYEREMKTYIPPKGETKKKFKDPNAPKRPPSAFFLFCSEYRPKIKGEHPGLSIGDVAKKLGEMWNNTAADDKQPYEKKAAKLKEKYEKDIAAYRAK
modifications: disulfide bond between C22 and C44
B7: dBB12L (FR-HMGB1 89–174::89–174) (other)
chain: KDPNAPKRPPSAFFLFCSEYRPKIKGEHPGLSIGDVAKKLGEMWNNTAADDKQPYEKKAAKLKEKYEKDIAAYRAKGKPDAAKKGVKDPNAPKRPPSAFFLFCSEYRPKIKGEHPGLSIGDVAKKLGEMWNNTAADDKQPYEKKAAKLKEKYEKDIAAYRAKGKPDAAKKGV
modifications: fully reduced Cys105 (printed numbering) in both copies; printed n = entry n+1 (C22/C44/C105 = C23/C45/C106 in P09429); direct tandem fusion, with native flanks acting as the linker

T1 sequence (Q15109 23-342, change not shown): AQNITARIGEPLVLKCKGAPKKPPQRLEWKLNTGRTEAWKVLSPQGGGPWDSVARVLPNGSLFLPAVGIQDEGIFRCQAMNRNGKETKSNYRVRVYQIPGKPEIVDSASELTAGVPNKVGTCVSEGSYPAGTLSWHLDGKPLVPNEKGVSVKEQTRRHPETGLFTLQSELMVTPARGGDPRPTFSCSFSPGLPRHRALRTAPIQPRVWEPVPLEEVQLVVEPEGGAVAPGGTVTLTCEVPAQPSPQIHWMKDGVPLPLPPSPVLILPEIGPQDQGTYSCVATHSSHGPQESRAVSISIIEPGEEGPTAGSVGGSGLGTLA

The first assay addresses T1, RAGE-Fc chimera protein (UniProt Q15109 23-342). In words: BLI; kinetics.
For B1, the Kd came out at 800 nM.
B2: the Kd was determined as 200 nM. This Kd lies about 4-fold lower than the previous one.
On the same count and under the same terms, to B3 belongs 200 nM.
In the case of B4, binding was characterised by a dissociation constant (Kd) of 900 nM. Compared with the last molecule, the Kd is about 4.5-fold higher.
Still for that read-out and setting: as for B5, the figure is 15600 nM; as for B6, 900 nM; as for B7, 1300 nM.

A further assay has as its target T1, RAGE-Fc chimera protein. In words: BLI.
B1 had a koff of 0.041 s⁻¹.
On the same count and under the same terms, as for B2, the figure is 0.043 s⁻¹.
Take B3: the koff was 0.067 s⁻¹. This koff is about 1.6-fold higher than that of the molecule before.
For B4, the koff came to 0.015 s⁻¹.
Still for that read-out and setting: as for B5, the figure is 0.439 s⁻¹; as for B6, 0.152 s⁻¹.

Another assay addresses T1, RAGE-Fc chimera protein. In words: ELISA.
B1 displayed a Kd of 86.1 nM.
The molecule B2 came in with a Kd of 4.35 nM. Compared with the last molecule, the Kd is about 20-fold lower.
The same measure, in the same setting: as for B3, the figure is 33.9 nM; as for B4, 7.22 nM.

Another assay concerns the target T1, RAGE-Fc chimera protein. In words: BLI; saturation.
B1 came in with a Kd of 2300 nM.
On the same count and under the same terms, to B2 belongs 1300 nM; to B3, 500 nM.
The same measure, in the same setting: as for B4, the figure is 3000 nM; as for B5, 53400 nM.
Still for that read-out and setting: to B6 belongs 3100 nM.
